Molecular target: α-synuclein (human, UniProt P37840 1-140)
Test: quartz crystal microbalance (QCM); α-synuclein (1 μM) immobilised by amine coupling; 2.5, 5, 10, 15, 20 nM AD(Cys) added; citrate buffer (pH 4.0); kon, koff from linear regression of kobs against concentration
Settings: both partners purified

B1: Hsp60 AD(Cys), isolated apical domain of human Hsp60 with cysteines at the N- and C-termini (domain or fragment)
chain: CGMKFDRGYISPYFINTSKGQKCEFQDAYVLLSEKKISSIQSIVPALEIANAHRKPLVIIAEDVDGEALSTLVLNRLKVGLQVVAVKAPGFGDNRKNQLKDMAIATGGAVFGEEGLTLNLEDVQPHDLGKVGEVIVTKDDAMLLKGKGDKAQIEKRIQEIIEQLDVTTSEYEKEKLNERLAKLSDC
modifications: disulfide bond between the two engineered cysteines at the N- and C-termini
notes: Cysteine introduced at the N-terminus; the primer ACCATGTGCGGCATGAAATTCGATCGCGGTT encodes Met-Cys-GMKFDRG; Apical domain of human Hsp60; Cysteine introduced at the C-terminus of the domain, before the His6 tag; the primer AGTGATTGCCACCACCACCACCACCACTGA encodes SD-Cys-HHHHHH-stop; A start Met precedes the N-terminal Cys in the construct; Monomer by gel filtration; also called …
A Kd of 5.04 nM, a koff of 0.00295 s⁻¹ and a kon of 585000 M⁻¹ s⁻¹ were found for B1 in this work.

Source: PMC6982183 (International Journal of Molecular Sciences, 2019)
